Patent US20200010554A1 (TUSK THERAPEUTICS, published 2020)
Numbering of substitutions follows the chain as printed. One block for each molecule: values may come before it.

How the values were obtained:
[1] = target: recombinant mouse IL-2 (mouse) (UniProt P04351); test: cell-based or functional assay
recombinant mouse CD25 [2] = target: T1, recombinant mouse CD25 (mouse, UniProt P01590 22-236, biotinylated in FIG. 1A (site not stated)); test: BLI tandem cross-blocking: biotinylated mouse CD25 on SA sensor, 100 nM mouse IL-2, then antibody at 150 s
T1 construct: also called biotinylated mouse CD25
T1 sequence (looked up): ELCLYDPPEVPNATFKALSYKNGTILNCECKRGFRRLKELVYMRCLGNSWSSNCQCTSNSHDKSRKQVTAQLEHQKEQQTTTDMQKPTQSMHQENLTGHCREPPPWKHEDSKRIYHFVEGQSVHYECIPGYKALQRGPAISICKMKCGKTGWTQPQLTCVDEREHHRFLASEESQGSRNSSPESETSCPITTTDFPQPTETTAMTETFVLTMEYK

[3] = target: T2, human CD25 expressed on cells (Karpas 299, SU-DHL-1, SR-786, in vitro differentiated Treg cells, PBMC) (human, UniProt P01589 22-272); test: flow cytometry titration on Karpas 299 cells, AF647 secondary antibody [Figure 68 continued]
T2 construct: also called CD25 expressing cells
T2 sequence: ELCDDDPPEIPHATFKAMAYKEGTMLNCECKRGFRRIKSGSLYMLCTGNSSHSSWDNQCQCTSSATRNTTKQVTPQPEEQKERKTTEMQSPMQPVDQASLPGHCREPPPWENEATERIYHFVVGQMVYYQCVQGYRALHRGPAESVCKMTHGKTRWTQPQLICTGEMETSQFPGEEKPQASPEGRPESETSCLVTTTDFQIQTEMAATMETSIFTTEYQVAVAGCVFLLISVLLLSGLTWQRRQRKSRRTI

[4] = target: T2, human CD25 expressed on cells (Karpas …); test: as above; remark: listed apart in the source
[5] = target: T2, human CD25 expressed on cells (Karpas …); test: flow cytometry titration on Karpas 299 cells, AF647 secondary antibody
[6] = target: T2, human CD25 expressed on cells (Karpas …); test: flow cytometry titration on Karpas 299 cells, AF647 secondary antibody [Figure 68 continued]; remark: listed apart in the source
[7] = target: T2, human CD25 expressed on cells (Karpas …); test: as above; remark: listed apart in the source
[8] = target: T2, human CD25 expressed on cells (Karpas …); test: flow cytometry titration on Karpas 299 cells, AF647 secondary antibody; remark: listed apart in the source
[9] = target: T2, human CD25 expressed on cells (Karpas …); test: flow cytometry titration on Karpas 299 cells, AF647 secondary antibody [Figure 68 continued]; remark: listed apart in the source
[10] = target: T2, human CD25 expressed on cells (Karpas …); test: flow cytometry titration on Karpas 299 cells, AF647 secondary antibody; remark: listed apart in the source
[11] = target: T2, human CD25 expressed on cells (Karpas …); test: as above; remark: listed apart in the source
[12] = target: T2, human CD25 expressed on cells (Karpas …); test: flow cytometry titration on Karpas 299 cells, AF647 secondary antibody [Figure 68 continued]; remark: listed apart in the source
[13] = target: T3, recombinant mouse CD25 his tagged (mouse, UniProt P01590 22-236, limits assumed); test: SPR Biacore 2000, antibody captured by anti-mouse antibody on CM-5 chip, recombinant mouse CD25 his tagged as analyte, bivalent analyte model
T3 construct: also called rmCD25 his tagged; mCD25; not shown: his tag
T3 sequence (looked up): T1 sequence (looked up)

[14] = target: T2, human CD25 expressed on cells (Karpas …); test: flow cytometry on human in vitro differentiated Treg cells, MFI AF647
recombinant mouse CD25 [15] = target: T1, recombinant mouse CD25; test: BLI Octet RED384, IgG on AHQ sensors, 100 nM antigen, 1:1 model

frequency of CD4 T cells both proliferating and producing Granzyme B after anti-CD3/anti-CD28 stimulation [1]: < 1%
Molecule: neutralizing anti-mouse IL-2 antibody, clone Jes6-1A12

binding result (recombinant mouse CD25 [2]): binds
B1: recombinant mouse IL-2 (ligand, UniProt P04351 21-169, looked up)
chain: APTSSSTSSSTAEAQQQQQQQQQQQQHLEQLLMDLQELLSRMENYRNLKLPRMLTFKFYLPKQATELKDLQCLEDELGPLRHVLDLTQSKSFQLEDAENFISNIRVTVVKLKGSDNTFECQFDDESATVVDFLRRWIAFCQSIISTSPQ

EC50 (read off the curve) [4]: ~0.3 µg/mL
B3: Antibody 19 (antibody, V domains shown)
VH: QVQLVESGGGVVQPGGSLRLSCAVSGFSLTSYGIQWVRQAPGKGLEWVSVIWAGGSTNYNSALMSRFTISKDNSKSTLYLQMNSLRAEDTAVYYCARAYGYDGSWLAYWGQGTLVTVSS
VL: QIVLTQSPATLSLSPGERATLSCRASSSVSYMHWYQQKPGQAPRPLIFATSNLASGIPARFSGSGSGTDYTLTISSLEPEDFAVYYCQQWSSNPPTFGGGTKLEIK
notes: also called Ab19; Antibodyl9

EC50 (read off the curve) [7]: ~0.2 µg/mL
B6: Antibody 16 (antibody, V domains shown)
VH: QVQLQESGPGLVKPSETLSLTCTVSGFSLTSYGIQWVRQPPGKGLEWIGVIWAGGSTNYNSALMSRVTISKDNSKSQFSLKLSSVTAADTAVYYCARAYGYDGSWLAYWGQGTLVTVSS
VL: DIQMTQSPSSLSASVGDRVTITCRASSSVSYMHWYQQKPGKAPKPLIFATSNLASGVPSRFSGSGSGTDYTLTISSLQPEDFATYYCQQWSSNPPTFGGGTKLEIK
notes: also called Ab16

EC50 (read off the curve) [9]: ~0.2 µg/mL
B8: Antibody 17 (antibody, V domains shown)
VH: B6 VH
VL: B6 VL with D1Q, M4L, A42S
notes: also called Ab17

EC50 (read off the curve) [12]: ~0.2 µg/mL
B11: Antibody 21 (antibody, V domains shown)
VH: B3 VH
VL: B6 VL with D1Q, M4L, A42S
notes: also called Ab21

Second part, the molecule before the results:

B2: Antibody 18 (antibody, V domains shown)
VH: B3 VH
VL: B3 VL with Q1E, Y70F
notes: also called Ab18
EC50 (read off the curve) [3]: ~0.3 µg/mL

B4: Antibody 12 (antibody, V domains shown)
VH: B6 VH with V37I, S76N
VL: B6 VL
notes: also called Ab12
EC50 (read off the curve) [5]: ~0.3 µg/mL

B5: Antibody 20 (antibody, V domains shown)
VH: B3 VH
VL: B6 VL
notes: also called Ab20
EC50 (read off the curve) [6]: ~0.2 µg/mL

B7: Antibody 15 (antibody, V domains shown)
VH: B6 VH
VL: B3 VL
notes: also called Ab15
EC50 (read off the curve) [8]: ~0.3 µg/mL

B9: Antibody 14 (antibody, V domains shown)
VH: B6 VH
VL: B3 VL with Q1E, Y70F
notes: also called AB14
EC50 (read off the curve) [10]: ~0.3 µg/mL

B10: Antibody 13 (antibody, V domains shown)
VH: B6 VH with V37I, S76N
VL: B6 VL with D1Q, M4L, A42S
notes: also called Ab13
EC50 (read off the curve) [11]: ~0.2 µg/mL

B12: 2E4, anti-mouse CD25 antibody from the 2E4 hybridoma (antibody, V domains shown)
VH: EVQLVESGGGLVQPGRSLKLSCAASGFTFSDYGMAWVRQAPTKGLEWVASITNGGLNTYYRDSVKGRFTISRDNAKCTLYLQMDSLRSEDTATYYCATGGFSFWGQGTLVTVSS
VL: DIVMTQSPTSMSISVGDRVTMNCKASQNVDSNVDWYQQKTGQSPKLLIYKASNRYTGVPDRFTGSGSGTDFTFTIRNMQAEDLAVYYCMQSNSYPLTFGSGTKLEIK
notes: also called 2E4 (mlg1)
Kd [13]: 114 nM

B13: 7G7B6, mouse IgG2a anti-human CD25 antibody (antibody, V domains shown)
VH: EVQLVESGGDLVQPRGSLKLSCAASGFTFSSYGMSWVRQTPDKRLELVATINGYGDTTYYPDSVKGRFTISRDNAKNTLYLQMSSLKSEDTAMYFCARDRDYGNSYYYALDYWGQGTSVTVSS
VL: QIVLSQSPAILSASPGERVTMTCRASSSVSFMHWLQQKPGSSPKPWIYATSNLASGVSARFSGSGSGTSYSLTITRVEAEDAATYYCQQWSSNPPAFGGGTKLEIK
notes: also called 7G76B; mouse anti-human CD25 clone 7G7B6
EC50 (read off the curve) [14]: ~1 µg/mL

B14: 7D4(mIgG2a), recombinant anti-mouse CD25 antibody with mouse IgG2a and kappa constant regions (antibody)
heavy: EVQLQQSGAALVKPGASVKMSCKASGYSFPDSWVTWVKQSHGKSLEWIGDIFPNSGATNFNEKFKGKATLTVDKSTSTAYMELSRLTSEDSAIYYCTRLDYGYWGQGVMVTVSSAKTTAPSVYPLAPVCGDTTGSSVTLGCLVKGYFPEPVTLTWNSGSLSSGVHTFPAVLQSDLYTLSSSVTVTSSTWPSQSITCNVAHPASSTKVDKKIEPRGPTIKPCPPCKCPAPNLLGGPSVFIFPPKIKDVLMISLSPIVTCVVVDVSEDDPDVQISWFVNNVEVHTAQTQTHREDYNSTLRVVSALPIQHQDWMSGKEFKCKVNNKDLPAPIERTISKPKGSVRAPQVYVLPPPEEEMTKKQVTLTCMVTDFMPEDIYVEWTNNGKTELNYKNTEPVLDSDGSYFMYSKLRVEKKNWVERNSYSCSVVHEGLHNHHTTKSFSRTPGK
light: DVVLTQTPPTLSATIGQSVSISCRSSQSLLHSNGNTYLNWLLQRPGQPPQLLIYLASRLESGVPNRFSGSGSGTDFTLKISGVEAEDLGVYYCVQSSHFPNTFGVGTKLEIKRADAAPTVSIFPPSSEQLTSGGASVVCFLNNFYPKDINVKWKIDGSERQNGVLNSWTDQDSKDSTYSMSSTLTLTKDEYERHNSYTCEATHKTSTSPIVKSFNRNEC
notes: also called 7D4m2a; a7D4 mIgG2a
Kd (recombinant mouse CD25 [15]): ~1 nM | Kd [13]: 2.6 nM

B15: 7D4(mIgG1), recombinant anti-mouse CD25 antibody with murine IgG1 and kappa constant regions (antibody)
heavy: EVQLQQSGAALVKPGASVKMSCKASGYSFPDSWVTWVKQSHGKSLEWIGDIFPNSGATNFNEKFKGKATLTVDKSTSTAYMELSRLTSEDSAIYYCTRLDYGYWGQGVMVTVSSAKTTPPSVYPLAPGSAAQTNSMVTLGCLVKGYFPEPVTVTWNSGSLSSGVHTFPAVLQSDLYTLSSSVTVPSSTWPSQTVTCNVAHPASSTKVDKKIVPRDCGCKPCICTVPEVSSVFIFPPKPKDVLMISLTPKVTCVVVDISKDDPEVQFSWFVDDVEVHTAQTKPREEQINSTERSVSELPILHQDWLNGKEFKCRVNSAAFPAPIEKTISKTKGRPKAPQVYTIPPPKEQMAKDKVSLTCMITNEFPEDITVEWQWNGQPAENYKNTQPIMDTDGSYFVYSKLNVQKSNWEAGNTFTCSVLHEGLHNHHTEKSLSHSPGK
light: B14 light
notes: also called a7D4(mIgG1); 7D4 (mlg1)
Kd (recombinant mouse CD25 [15]): ~1 nM
